# Experimental data reported in the nanobody polyreactivity screen of Harvey et al. (2022).
# Test: yeast display, Sf9 membrane polyspecificity reagent, FACS + sequencing; frameworks hold sequencing errors
# Method in brief: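 In a synthetic yeast display library (Saccharomyces cerevisiae BJ5465), nanobody expression was induced with galactose for 36–48 hours. FACS gates were set low and high (top ~1%) using anti-HA fluorescence for expression and streptavidin fluorescence for binding of the Sf9 membrane reagent. Each polyreactivity label is drawn from the gate of origin.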
row,Sequence,polyreactivity (PSR sort gate)
1,QLQLVESGGGLVQAGGSLRLRCAASGRIFVRYAMGWYRQEPGKERELVAAISTRGGSTYYADSVKGRFTISRDKAKNTVYLQMNSLKAEDTAVYYCASGPRPRPSDYWGQGTQVTGSS,high polyreactivity
2,QVQLVESGGGLVQAGGSLRLSCAASGSTFDRYGMGWYRQAPGKERELVAAISWSGGSTYYADSVKGRFTFSRDNAKNTVYLQMNSLKPEDTAVYYCNAVLYRFAYNYWGQGTQVTVSS,low polyreactivity
3,QVQLVESGGGLVQAGGSLRLSCAASGIIFPNYAMGWYRQAPGKERELFAAITWRGGGTYYADSVKGRFTISRDNAKNTVYLQMNSLKPEDTAVYYCAAQKAYPRRYYGYKWEYYYWGQGSQVTVSS,high polyreactivity
4,QVQLVESGGGLVQAGGSLRLSCAASGLIFRRYAMGWYRQAPGKERELVAAITSSGGSTYYADSVKGRFTISRDNAKNTVYLQMNSLKPEDTAVYYCNAYYTGRSAPDSWGQGTQVTVSS,high polyreactivity
5,QVQLVESGGGLVQAGGSLRLSCAASGSIFGSNTMGWYRQAPGKERELVAAINSSGGSTYYADSVKGRFTISRDNAKNTVYLQMNSLKPEDTEVYYCNAASYRFFPYLYYYWGQGTQVTVSS,high polyreactivity
6,QVQLVESGGGLVQAGGSLRLSCAASGRTFVYYAMGWYRQAPGKEREFVATITSSGGSTYYADSVKGRFTISRDNAKNTVYLQMNSLKPEDTAVYYCAASPYIRYSKVSKYYYWGQGTQVTVSS,high polyreactivity
7,QVQLVESGGGLVQAGGSLRLSCAASGNTIYQYAMGWYRQAPGKERELVAAISSSVDRTYYADSVKGRFTISRDNAKNTVYLQMNSLKPEDTAVYYCAAASGGRWRVGYWGQGTQVTVSS,high polyreactivity
8,QVQLVESGGGLVQAGGSLRLSCAASGFIFGYYAMGWYRQAPGKERELVAAINRSGSTYYADSVKGPFTISRDNAKNTVYLQMNSLKPEDTAVYYCKLRHYVGLSKGDYWGQGTQVTVSS,high polyreactivity
9,QVQLVESGGGLVQAGGSLRLSCAASGFIFASNAMGWYRQAPGKERELVAGITKSGGSTYYADSVKGRFTISRDNAKNTVYLQMNSLKPEDTAVYYCAKVSYARAKSSGFYYWGQGTQVTVSS,high polyreactivity
10,QVQLVESGGGLVQAGGSLRLSWAASGFGWYAMGWYRQAPGKEREFVAAISRGGGSTYYADSVKGRFTISRDNAKNTVYLQMNSLKPEDTAVYYCAAVYYRRISQGDTQTYYQYNYWGQGTQVTVSS,high polyreactivity
11,QVQLVESGGGLVQAGGSLRLSFAASGITFDSYAKGWYRQAPGKERELVATISRSGTTTYYADSVKGRFTISRDNAKNTVYLQMNSLKPEDTAVYYCNTLRAYWTYHFYGAVRDGYDYWGQGTQVTVSS,low polyreactivity
12,QVQLVESGGGLVQAGGSHRLTCAASGITFTVNAMGWYRQAPRKERELVAAISNDGSTYYADSVKGRFTISRDYAKNTVYLQMNSLKPEDTAVYYCAADTWDDFGPYGYDYWGQGTQVTVSS,low polyreactivity
13,QVQLVESGGGLVQAGGSLRLSCAASGSIFYPNAMGWYRQAPGKEREFVAAISKSGGNTYYADSVKGRFTISRDNAKNTVYLQMNSLKPEDTAVYYCAARTQAFSRKGYGYWGQGTQVTVSS,high polyreactivity
14,QVQLVESGGGLVQAGGSLRLSCAASGRTFWNYSMGWYRQAPGKERELVAVIRFSDGSTYYADSVKGRFTISRDNAKNTVYLQMNSLKPEDTAVYYCAADYSLYGWWFRNDYWGQGTQVTVSS,low polyreactivity
15,QVQLVESGGGLVQAGGSLRLSCAASGRTFDYNAMGWYRQAPGKEREFVAAITKSGGSTNYADSVKGRFTISRDNEKNTVYLQMNSLKPEDTAVYYCNATYVVIHEYDYWGQGTQVTVSS,low polyreactivity
16,QVQLVESGGGLVQAGGSLRLSCAASGRIFPSYAMGSSRQAPGKEREFVAAITWSGTDTYYADSVQGRFTISRDNAKNTVYLQMTSLKPEDTAVYYCAAEEYVEVDTTAYDYWGQGTQVTVSS,low polyreactivity
17,QVQLVESGGGLVQAGGSLRISCAASGSTFLTNTLGWYRQAPGKERELVAAITLRGGRTYYADSVKGRFTISRDNAKNTVYLQMNSLKPEDTAVYYCNARNYYYPSDRDYWGQGTQVTVSS,low polyreactivity
18,QVQLVESGGGLVQAGGSLRLSCAASGSIFWRYAMGWYRQAPGKERELVAVISDRGGITYYADSVKGRFTISRDNAKNTVYLQMNSLKPEDTAVYYCNAVDSDRSDPSEYDYWGQGTQVTVSS,low polyreactivity
19,QVQLVESGGGLVQAGGSLRLSCAASGLIFPLYDMGWYIQAPGKDRELVAAITWGGGGTYYADSVKGRFTISRDNAKNTVYLQMNSLKPEDTAVYYCNADSDIAAPLRTYITFDYWGQGTQVTVSS,low polyreactivity
20,QVQLVESGGGLVQAGGSLRLSCAASGFTFRYNAMGWYRQAPGKERELVAAITSDVSTNYADSVKGRFTISRDNAKNTVYLEMNSLKAEDTAVYYCAKGTAKRIVGRSPGNTYEDHYWGQGTEVTVSS,low polyreactivity
21,HVQLVESGGGLVQAGGSLRLSCAASGRTFIYNAMGWYRQAPGKEREFVAANTWSGATTRYADSVKGRFTISRDNAKNTVYLEMNSLKPEDTAVYYCAKGGFYYYGWRSSMDYWGQGTQVTVSS,high polyreactivity
22,QVQLVESGGGLVQAGGSLRLSCAASGSIFAKNAMGWYRQAPGKERELVAAITFIGGDTYYADSVKGRFTISRDNAKNTVYLQMNSLKPEDTAVFYCNRALLVTSIYPYLFGSGWYDYWGQGTQVTVSS,low polyreactivity

row,Sequence,polyreactivity (PSR sort gate)
1,QVQLVESGGGIVQAGGSLRLSCAASGITIQGYTMGWYRQEPGKERELVAAISSNGGRTYYADSVKGSFTISRDNAKNTVYLQMNSLKPEDTAVDYCAARKWRLIVDYWGEGTQVTVSS,high polyreactivity
2,QVQLVESGGGLVQAGGSLRLSCAASGGTFGYYAMGWYRQAPGKDRELVAGINYSGGRTYYADSVKGRFTISRDNAKNTVYLQMNSLKPEDTAVYYCAAQAYVGYRGYDYWGQGTQVTVSS,high polyreactivity
3,QVQLVESGGGLVQAGGSLRLSCAASGRIFVGYAMGWYRQAPGKERELVAAISSDGGSTYYADSVKGRFTISRDNAKNTVYLQMNSLKPEDTAVYYCNAYYGRFPYYADDYWGQGTQVTVSS,low polyreactivity
4,QVQLVESGGGLVQAGGSLRLSCAASGRIFYTNAMGWYRQAPGKERELVAVISWGGDTTYYADSVKGRFTISRDNAKNTVYLQMNSLKPEDTAVYYCNADWGPTYEIYDSWGQGTQVTVSS,low polyreactivity
5,QVQLEESGGGLVQAGGSLRLSCAASGSIFQTYAMGWSRQAPGKERQLVAAITSGGGSTYYADSVKGRFTISRDNAKNTVYLQMNSLKREDTAVYYCAAGSRFVSSRLYYWGQGTQVTVSS,high polyreactivity
6,QVQLVESGGGLVQAGGSLRLSCAPSGRTLIHYAMGWSRQAPGKEREFVATINIGGRTYADSVKGRFTISRDNAKTTVYLQMNSLKPEDSAVYYCDADHRYSARRSFPTLYDYWAQGTQVTVSS,low polyreactivity
7,QGQLVESGGGLVQAGGSLRLSCAASGSTFTIYVMGWYRQAPGKERELVAGISWSGGSTYYTDSVKGRFTISRDNAKNTVYLQMNSLKPEDTAVYYCNADAQWSVWSYIIDYDYWGQGTQVTVPS,low polyreactivity
8,QVQLVESGGGLVQAGGSLSLSCAASGSIFRINAMGWYRQATGKERELVARISWRAGNTYYADSVKGRFTISRDNAKNTVYLQMNSLKPEDTAVYYCNADYYVTGLYGPGYDYWGQGTKVTVSS,low polyreactivity
9,QDQLVESGGGLVQARGSLRLSCASSGSTFDTNTMGWYRQAPGKERELVASNSRGTSTKYADSVKGRFTISRDNAKNTVYLQMNSLKPEDTAVYYCNAVSRDKSLYDYWGQGTQVTVSS,high polyreactivity
10,QVQLVESGGGLVQAGGSLRLSCAASGSTFQFNVMGWYRQAPGKERELVAAITSGASTYYADSVKGRFTISRDNAKNTVYLQMNSLEPVDTAVYYWAVDYSFRYDYVQRYYYWGQGTQVTVSS,high polyreactivity
11,QVQLVESGGGLVQAGGSLRLSCAASGRIFRYYAMGWYRQAPGKERELVAAITSGGNTYYADSVKGRFTISRDNAKNTVYLQMNSLKPVDTAVYYCADGRNLYHFYYWGQGTQVTVSS,high polyreactivity
12,QVQLVESGGGLVQAGGSLRLSCAASGSIFEGYVMGWYRQAPGKERELVATISFSGGSTYYADSVKGRFTISRDNAKNTVYLQMNSLKPEDTAVYYCNALVYHTKGDYGYWGHGTQVTVSS,low polyreactivity
13,QVQLVESRGGIVQAGGSLRLSCAASGRIFNNYAMGCYRQAPGKERELDAAISGGGSTNYADSVKGRFTISRDNETNTVYLQMNSLKPEDTAVYYSATGYLKASRDLYETVPYDYWGQGTQVTVSS,low polyreactivity
14,KVQIVESVGGLVQAGASLRLSCAASGSIFRYYPMGWYRQAPGKERELDAAISSSGTTYYADSVKGRFTISRDNAKNTVYLQMNRLKPEDCAVYYCAAVWTYWYYGDDYWGLGTQVTVSS,low polyreactivity
15,QVQLVESGGGLVQAGGSLRLRCAASGSSFTGYAMGLYRQAPGKEREFVAAICWTGVSTYYADSVKGSFTISRDNAKNTVYLQMNSLKPEDTAVYYCAVDYVLRDRDLFYIIMEYWGQGTQVTVSS,low polyreactivity
16,QVQLVESGGGLVQAGGSLRLSCAASGLIFGVNAMGWYRQAPGKERELVAVISRGGRTNYADSVKGRFTISRDNAKNTVYLQMNSLKPEDTAVYYCATYYTNKVPARYYWGQGTQVTVSS,high polyreactivity
17,QVQLVESGGGLVQAGGSLRLSCAASGITFAYYAMGWYRQAPGTEREWVAAISRSGGGTYYADSVKGRFTISRDNAKNTVYLQMNTLIPEDTAVYYCNKDYPYYNSGPWAYKFDYCGQGTQVTVSS,high polyreactivity
18,QVQLVESGVGLVQAGGSLRLSCAASGSIFEVYAMGWYRQAPGKEREFVATLSGSGGSTYYADSVKGRFTISRDNAKNTVYLQMNSLKPEDTAVYYCAASIAWYSSFVITCYYWGQGTQVTVSS,low polyreactivity
19,HFQLVEAGGGLVQAGGSLSLSCADSGRTYSHYAMGWYSQAPAQVRELVAGISSGSRTNYADSVKGRFTISRDNAKNTVYLQMNSLKPEDTAFYYCAARTNYLKGGYWGQGTQVTVSS,high polyreactivity
20,QVQLVDSGGGLVQAGGSLRLTCAASGSIFDRYAMGWYRQAPGKERELVAAITGRGTSTYYADSVKGRFTISRDNAKNTVYLQMNSLKPEETAVYYCATPFWSRPAQDEYDYWGQGTQVTVSS,high polyreactivity
21,QVQLVESGGGLVQAGGSLRLSCAASGIIFVKYAMGWYRQAPGKERQLVAAITSGGSTYYADSVKGRFTISRDNAMYTVYLQMNSLKPEDTAVYYCNADSWFLYFFTINGYWGQGTQVTVSS,high polyreactivity
